Test results published in the RNAGym collection of RNA variant scans (doi:10.7554/elife.90254).

B1: LINE1-full (parent)
chain: UACGUAGGUGGUUUUCCCCUGAUAGUGCUAAGGGGGCCUGGAAGUUUGGACUGGGCAGAGCUCAACACAGCGUGGCAAAGUGGCUGUGGCUAGACUGCCUCUCUGGAUUCCUCGUCACUCAGCAGGGCAUCUCUGAGAGAAAUGCC

Variants of: B1
Assay: self-cleavage, relative activity (ratio to wild type); higher = more cleavage; in vitro, sequencing; the parent is a self-cleaving ribozyme
In the case of UACGUAGGUGGUUUUCCCCUGAUAGUGCUAAGGGGGCCUGGAAGUUUGGACUGGGCAGAGCUCAACACAGCGUGGUAAAGUGGCUGUGGCUAGACUGCCUCCCUGGAUUCCUCGUCACUCAGCAGGGCAUCUCUGAGAGAAAUGCC [C76U U102C], the self-cleavage is reported as 0.59. UACGUAGGUGGUUUUCCCCUGAUAGUGCUAAGGGGGCCUGGAAGUUUGGACUGGGCAGAGCUCAACACAGCGUGGUAAAGUGGCUGUGGCUAGACUGCCUCUCCGGAUUCCUCGUCACUCAGCAGGGCAUCUCUGAGAGAAAUGCC [C76U U104C] gave a self-cleavage of 2.05. In the case of UACGUAGGUGGUUUUCCCCUGAUAGUGCUAAGGGGGCCUGGAAGUUUGGACUGGGCAGAGCUCAACACAGCGUGGUAAAGUGGCUGUGGCUAGACUGCCUCUCUGGACUCCUCGUCACUCAGCAGGGCAUCUCUGAGAGAAAUGCC [C76U U108C], the self-cleavage is reported as 2.53. For UACGUAGGUGGUUUUCCCCUGAUAGUGCUAAGGGGGCCUGGAAGUUUGGACUGGGCAGAGCUCAACACAGCGUGGUAAAGUGGCUGUGGCUAGACUGCCUCUCUGGAUUCCUCGUCACUCAGCAGGGCAUCCCUGAGAGAAAUGCC [C76U U132C], the self-cleavage was 1.8. UACGUAGGUGGUUUUCCCCUGAUAGUGCUAAGGGGGCCUGGAAGUUUGGACUGGGCAGAGCUCAACACAGCGUGGUAAAGUGGCUGUGGCUAGACUGCCUCUCUGGAUUCCUCGUCACUCAGCAGGGCAUCUCUGAGAGAAACGCC [C76U U143C] gave a self-cleavage of 2.01. UACGUAGGUGGUUUUCCCCUGAUAGUGCUAAGGGGGCCUGGAAGUUUGGACUGGGCAGAGCUCAACACAGCGUGGCCGAGUGGCUGUGGCUAGACUGCCUCUCUGGAUUCCUCGUCACUCAGCAGGGCAUCUCUGAGAGAAAUGCC [A77C A78G] gave a self-cleavage of 1.63. Work on UACGUAGGUGGUUUUCCCCUGAUAGUGCUAAGGGGGCCUGGAAGUUUGGACUGGGCAGAGCUCAACACAGCGUGGCCAAGUGGCUGUGGCUAGGCUGCCUCUCUGGAUUCCUCGUCACUCAGCAGGGCAUCUCUGAGAGAAAUGCC [A77C A94G] yielded a self-cleavage of 0. With UACGUAGGUGGUUUUCCCCUGAUAGUGCUAAGGGGGCCUGGAAGUUUGGACUGGGCAGAGCUCAACACAGCGUGGCCAAGUGGCUGUGGCUAGACUGCCUCUCUGGAUUCCUCGUCACUCAGCAGGGCAUCUCUGGGAGAAAUGCC [A77C A136G] the self-cleavage was 1.06. UACGUAGGUGGUUUUCCCCUGAUAGUGCUAAGGGGGCCUGGAAGUUUGGACUGGGCAGAGCUCAACACAGCGUGGCCAAGUGGCUGUGGCUAGACUGCCUCUCUGGAUUCCUCGUCACUCAGCAGGGCAUCUCUGAGAGAAGUGCC [A77C A142G] showed a self-cleavage of 1.34. UACGUAGGUGGUUUUCCCCUGAUAGUGCUAAGGGGGCCUGGAAGUUUGGACUGGGCAGAGCUCAACACAGCGUGGCCAAGUGGCUGUGGCUAGACUGCCUCUCUGGAUUCCUCGUUACUCAGCAGGGCAUCUCUGAGAGAAAUGCC [A77C C116U] gave a self-cleavage of 1.04. Work on UACGUAGGUGGUUUUCCCCUGAUAGUGCUAAGGGGGCCUGGAAGUUUGGACUGGGCAGAGCUCAACACAGCGUGGCCAAGUGGCUGUGGCUAGACUGCCUCUCUGGAUUCCUCGUCACUCAGCAGGGUAUCUCUGAGAGAAAUGCC [A77C C128U] yielded a self-cleavage of 1.67. Variant UACGUAGGUGGUUUUCCCCUGAUAGUGCUAAGGGGGCCUGGAAGUUUGGACUGGGCAGAGCUCAACACAGCGUGGCCAAGUGGCUGUGGCUAGACUGCCUCUCUGGAUUCCUCAUCACUCAGCAGGGCAUCUCUGAGAGAAAUGCC [A77C G114A] has a self-cleavage of 0.63. For UACGUAGGUGGUUUUCCCCUGAUAGUGCUAAGGGGGCCUGGAAGUUUGGACUGGGCAGAGCUCAACACAGCGUGGCCAAGCGGCUGUGGCUAGACUGCCUCUCUGGAUUCCUCGUCACUCAGCAGGGCAUCUCUGAGAGAAAUGCC [A77C U81C], the self-cleavage was 0. Variant UACGUAGGUGGUUUUCCCCUGAUAGUGCUAAGGGGGCCUGGAAGUUUGGACUGGGCAGAGCUCAACACAGCGUGGCCAAGUGGCUGUGGCUAGACUGCCUCCCUGGAUUCCUCGUCACUCAGCAGGGCAUCUCUGAGAGAAAUGCC [A77C U102C] has a self-cleavage of 0. UACGUAGGUGGUUUUCCCCUGAUAGUGCUAAGGGGGCCUGGAAGUUUGGACUGGGCAGAGCUCAACACAGCGUGGCCAAGUGGCUGUGGCUAGACUGCCUCUCUGGAUUCCCCGUCACUCAGCAGGGCAUCUCUGAGAGAAAUGCC [A77C U112C] gave a self-cleavage of 1.84. With UACGUAGGUGGUUUUCCCCUGAUAGUGCUAAGGGGGCCUGGAAGUUUGGACUGGGCAGAGCUCAACACAGCGUGGCCAAGUGGCUGUGGCUAGACUGCCUCUCUGGAUUCCUCGACACUCAGCAGGGCAUCUCUGAGAGAAAUGCC [A77C U115A] the self-cleavage was 1.28. UACGUAGGUGGUUUUCCCCUGAUAGUGCUAAGGGGGCCUGGAAGUUUGGACUGGGCAGAGCUCAACACAGCGUGGCCAAGUGGCUGUGGCUAGACUGCCUCUCUGGAUUCCUCGUCACUCAGCAGGGCACCUCUGAGAGAAAUGCC [A77C U130C] gave a self-cleavage of 1.89. Variant UACGUAGGUGGUUUUCCCCUGAUAGUGCUAAGGGGGCCUGGAAGUUUGGACUGGGCAGAGCUCAACACAGCGUGGCGGAGUGGCUGUGGCUAGACUGCCUCUCUGGAUUCCUCGUCACUCAGCAGGGCAUCUCUGAGAGAAAUGCC [A77G A78G] has a self-cleavage of 1.68. Work on UACGUAGGUGGUUUUCCCCUGAUAGUGCUAAGGGGGCCUGGAAGUUUGGACUGGGCAGAGCUCAACACAGCGUGGCGAAGUGGCUGUGGCUGGACUGCCUCUCUGGAUUCCUCGUCACUCAGCAGGGCAUCUCUGAGAGAAAUGCC [A77G A92G] yielded a self-cleavage of 0.2. Work on UACGUAGGUGGUUUUCCCCUGAUAGUGCUAAGGGGGCCUGGAAGUUUGGACUGGGCAGAGCUCAACACAGCGUGGCGAAGUGGCUGUGGCUUGACUGCCUCUCUGGAUUCCUCGUCACUCAGCAGGGCAUCUCUGAGAGAAAUGCC [A77G A92U] yielded a self-cleavage of 1.11.
